From the supplement of paper PMC10567573
± gives the standard deviation.

Assay: protein stability index of a GFP-peptide fusion (GPS, HEK-293T) (PSI 1-6); higher = more stable
[1] = treatment: DMSO, c terminus: a fixed tail appended
[2] = treatment: MLN4924 1 uM, 8 h, c terminus: a fixed tail appended
[3] = treatment: DMSO, c terminus: native
[4] = treatment: MLN4924 1 uM, 8 h, c terminus: native
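Further: 24-mer peptide tiles fused after GFP, lentivirally expressed, FACS-sorted into six equal bins by GFP/DsRed ratio, decoded by Illumina sequencing, PSI is the read-weighted mean bin number.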

Sequence | protein stability index [1] | protein stability index [2] | protein stability index [3] | protein stability index [4]
PSTYGGGLSVSSRFSSGGACGLGG [KRT16] | 3.21 ± 0.21 | 3.44 ± 0.2 |  | 
ELKTFRLKTRSWAGERSRRELCSR [CDC25B] | 3.07 ± 0.099 | 3.44 ± 0.56 |  | 
KTSELLVRKWRVKSALGAMGQWQL [DPCD] | 2.56 ± 0.76 | 2.47 ± 0.41 |  | 
EAVSDSTPFLTNHGAHKAEKKLFE [ZNF263] | 4.65 ± 0.5 | 4.42 ± 0.41 |  | 
TKLRLERVKFRRQEANARERNRMH [NEUROD6] | 3.67 ± 0.14 | 3.92 ± 0.4 |  | 
AEVSWEPGRREGCDICAGKAGCPI [RPS21] | 3.29 ± 0.31 | 3.89 ± 0.26 |  | 
TLLLRLNATDPDEGTNGQLDYSFG [PCDHGC5] | 2.88 ± 0.36 | 3.11 ± 0.28 |  | 
CHLFSTYVASHKIEKEEQEKKRKE [ACBD3] | 4.41 ± 0.41 | 4.43 ± 0.21 |  | 
LMPGMPPGMPPPVPRPGIPPMTQA [ZNF207] | 4.01 ± 0.34 | 4.2 ± 0.31 |  | 
RHQKIHSGEKPYKCSDCGKAFLTK [ZNF649] | 3.07 ± 0.069 | 3.25 ± 0.31 |  | 
NPEEDEDQRNPAKESLETPSNGRI [SOAT1] | 5.76 ± 0.064 | 5.62 ± 0.077 |  | 
PPHRRRLLFACSPPPASQPVVKAL [CDC25A] | 2.64 ± 0.22 | 2.98 ± 0.1 |  | 
EHPPEVSRETQRTPMNHQKAVNDE [FBXO34] | 5.29 ± 0.21 | 5.41 ± 0.075 |  | 
LPEKPVKLASHTRDTTGVSQMFPS [FBF1] | 3.97 ± 0.13 | 3.99 ± 0.47 |  | 
VAFRGLKGKKLYPVVSAVWGHCEV [SPSB4] | 1.83 ± 0.46 | 2.71 ± 0.2 |  | 
LSLLVHNVSVMHKSLDNMPNDEHW [FBXO33] | 2.36 ± 0.31 | 2.4 ± 0.14 |  | 
DGLREALANLRGLSEEERSEKAML [CCDC89] | 4.93 ± 0.22 | 4.51 ± 0.44 |  | 
AFSQAISAIQALRSSVSRVFDCLK [MED27] | 3.69 ± 0.36 | 3.41 ± 0.15 |  | 
SMFSRVGGIIAPFIPSLKYVQWSL [SLC22A15] | 2.54 ± 0.41 | 2.5 ± 0.65 |  | 
WPKLCPCLRSGIGSSQALGPSPPL [MYCL] | 2.46 ± 0.41 | 2.47 ± 0.14 |  | 
SPVAHKHLSRQKIDPLLYMTEWFM [TBC1D10A] | 2.19 ± 0.18 | 2.23 ± 0.16 |  | 
KLRLFDTPHTPKSLLSKARGIDSS [WEE1] | 3.19 ± 0.092 | 3.26 ± 0.32 |  | 
SSHFLEQTLDKKLMSDLRRKRTAH [INTS4] | 4.06 ± 0.23 | 4.14 ± 0.17 |  | 

Sequence | protein stability index [1] | protein stability index [2] | protein stability index [3] | protein stability index [4]
PPQLRPGAPTSLQTEPQDRSPAPM [BCL2L11] |  | 5.18 ± 0.077 |  | 
ECGHNFCKACITRWWEDLERDFPC [TRIM39] | 2.97 ± 0.49 | 3.01 ± 0.7 |  | 
MADPWQECMDYAVTLARQAGEVVC [IMPA1] | 2.56 ± 0.44 | 2.37 ± 0.21 |  | 
VNVEMDAAPGVDLTRVLAEMREQY [KRT15] | 3.13 ± 0.42 | 3.27 ± 0.31 |  | 
ESIAHIGDVMFTGTADGRVVKLEN [APMAP] | 4.11 ± 0.17 | 4.38 ± 0.19 |  | 
QFTAWPDHGVPEHPTPFLAFLRRV [PTPRD] | 2.44 ± 0.2 | 2.76 ± 0.26 |  | 
DGASQDCPPLPAGVSFHIDSAELE [FBXO34] | 5.39 ± 0.14 | 5.4 ± 0.16 |  | 
ADILAGREDNSGSDVLIGDILVLL [SLC35F2] | 2.48 ± 0.26 | 2.43 ± 0.18 |  | 
DRADYYLEEFKENAYKDLAWKHGN [PCMTD2] | 3.75 ± 0.084 | 3.07 ± 0.77 |  | 
KDAALATALGDKKSLEGDLEDLKD [LMNB1] | 5.42 ± 0.36 | 5.89 ± 0.14 |  | 
INDEMQAKGIPQRAPPKRKRKRVK [PCMTD1] | 5.51 ± 0.23 | 5.36 ± 0.24 |  | 
NVHFKEETVKLFICELVMALDYLQ [STK32A] | 2.81 ± 0.7 | 2.85 ± 0.62 |  | 
ALTRLERHLERKAWVANFERPRMN [CRY1] | 2.42 ± 0.048 | 2.66 ± 0.6 |  | 
TSCAGNLPSRPPPLLSPLLASRNP [RSPH3] | 3.45 ± 0.22 | 3.61 ± 0.32 |  | 
SQKYKEGKYIIELNHMIKDNGWD [YPEL3] |  |  | 2.94 ± 0.28 | 2.97 ± 0.15
DHGCEQLCLNTEDSFVCQCSEGFL [MATN2] | 4.18 ± 0.21 | 4.06 ± 0.3 |  | 
TGHGVSRGPSPVVLGSQDALPIAT [FCHO1] | 4.17 ± 0.14 | 4.14 ± 0.045 |  | 
STKGSRSNLSTRDASILTEMPTQP [NETO1] | 4.52 ± 0.27 | 4.71 ± 0.24 |  | 
GAEPSAPGGGGSPGACPALGTKSC [RTN3] | 5.36 ± 0.26 | 5.4 ± 0.26 |  | 
RPTSCWQLDWDELETNQQHFHALC [M1AP] | 2.39 ± 0.21 | 2.77 ± 0.38 |  | 
AKLGTQAEKDRRLKKKHQLLEDAR [PPFIA4] | 4.26 ± 0.37 | 4.44 ± 0.1 |  | 
DREEEAIHHLVLTASDGGDPLRSG [PCDHGA10] | 5.02 ± 0.2 | 5.08 ± 0.11 |  | 
EGDVCGVEPPGPGDTVVQGDLQET [PBXIP1] | 5.57 ± 0.28 | 5.64 ± 0.19 |  | 

Sequence | protein stability index [1] | protein stability index [2] | protein stability index [3] | protein stability index [4]
MPRHNYHKVAPLVQSLCAKHGIEY [FADS1] | 2.64 ± 0.36 | 2.5 ± 0.36 |  | 
IEVFDPDANTWRLYGGMNYRRLGG [KLHL20] | 2.38 ± 0.45 | 2.17 ± 0.26 |  | 
LFLGIHVFLVSCALPDSVLRRFVV [AUP1] | 3.03 ± 0.52 | 2.97 ± 0.63 |  | 
IFNNVMTLCAMLPLLLFTYLNSFL [SLC29A1] | 3.25 ± 0.25 | 3.23 ± 0.2 |  | 
GLAYDRKKVSKAAILARIKRTGDG [SCD] | 3.27 ± 0.24 | 3.63 ± 0.35 |  | 
AKVDGETASDSESRAESAPLPVSA [CDS2] | 5.57 ± 0.15 | 5.5 ± 0.27 |  | 
EQEIQFEDFTNTLRELGHAEHEIT [PKD2L1] | 5.16 ± 0.2 | 5.17 ± 0.32 |  | 
KILLTKSENARLVLQIDNAKLAAD [KRT36] | 2.99 ± 0.15 | 3.08 ± 0.51 |  | 
ERPYGCDECEKAYFYMSCLVKHKR [ZNF649] | 2.48 ± 0.16 | 2.81 ± 0.28 |  | 
KKDRPLARRKSELPQDPHTKKALE [PPP2R5C] | 5.11 ± 0.2 | 4.96 ± 0.12 |  | 
MKEPITKAEILESVIKNYEDHFPL [MAGEA10] | 3.98 ± 0.31 | 3.93 ± 0.38 |  | 
EEYPGITAEDSNDIYILPSDNSGQ [BCL2L13] | 5.25 ± 0.18 | 5.14 ± 0.21 |  | 
ELAELEDALRNLKCGSGARGGDGE [TRADD] | 4.7 ± 0.39 | 4.66 ± 0.07 |  | 
CTLGICGQGLKSYMTKPSKSLLPH [RTP4] | 2.2 ± 0.3 | 2.21 ± 0.35 |  | 
LSQADFLVCTFSSQVCRVAYEIMQ [FUT8] | 2.96 ± 0.39 | 2.93 ± 0.58 |  | 
KAPAKKANSTTTAGRDHFLTCGV [BRD3] |  |  | 2.5 ± 0.11 | 2.74 ± 0.26
NLQDTLEAASFLQILPVLDFCKVF [KLHL13] | 2.73 ± 0.35 | 2.63 ± 0.52 |  | 
FGHHHQRAWIPSENIQDITVNIHR [ZMYND11] | 2.78 ± 0.37 | 2.69 ± 0.35 |  | 
SSAVYFAEADEPTTHFQSIPDAFW [KCNA4] | 2.54 ± 0.16 | 2.67 ± 0.33 |  | 
DGSGMPKTMQSEETRVWHRRDGKW [CAMK2D] | 4.49 ± 0.35 | 4.59 ± 0.095 |  | 
EYSPEEESEPPAPNIRNMAPNSLS [TRAF3IP2] | 5.04 ± 0.36 | 5.07 ± 0.27 |  | 
SLCCCCRWCCCCGERETRTPEELT [CLCN6] | 3.66 ± 0.41 | 3.88 ± 0.22 |  | 
SGPPASYCAKLCEPQWFYEETESS [C8orf76] | 4.02 ± 0.12 | 4.37 ± 0.19 |  | 

Sequence | protein stability index [1] | protein stability index [2] | protein stability index [3] | protein stability index [4]
AAPEGKRSLANGPNAGEQPGQVAG [EID1] | 5.44 ± 0.38 | 5.22 ± 0.16 |  | 
PEVEVQVKRRRTASLSNQECQLYP [SNURF] | 4.77 ± 0.2 | 4.84 ± 0.17 |  | 
LPIVKLLAKQPGVSVNAQTLDGRT [RIPK4] | 2.71 ± 0.17 | 3.13 ± 0.56 |  | 
LTERKYKGDSTIRELKAKLSGVEE [SASS6] | 4.18 ± 0.41 | 4.63 ± 0.52 |  | 
LSPKIMQEAFLVQEVVELPVTERQ [TBC1D10A] | 3.98 ± 0.19 | 3.91 ± 0.39 |  | 
DIKKVNNFIREQDLYALKSVKIPV [LYSMD4] | 2.38 ± 0.15 | 2.53 ± 0.4 |  | 
DDPENKKTSSSSKAGFTASPFTNL [CDC14A] | 4.92 ± 0.27 | 4.95 ± 0.14 |  | 
EGLRELQRSRRLCHEDVEALAAIY [DAPK3] | 2.72 ± 0.74 |  |  | 
EKMKKRKMSNSFHGIRPPQLEQPE [RHOBTB3] | 4.65 ± 0.12 | 4.77 ± 0.14 |  | 
PLHAPEAYFPYFKKHNVTAVVRLN [CDC14A] | 2.17 ± 0.094 | 2.08 ± 0.37 |  | 
FSVKFEVQAPRWGNPRALSFVLSS [OAS1] | 2.94 ± 0.27 | 3.01 ± 0.49 |  | 
RRLLRRLSPSRGVAQCLRDLVAMQ [ZSWIM9] | 2.49 ± 0.36 | 2.89 ± 0.32 |  | 
DVAEGYRKLSLKGHNDWVMDVAIS [WDR88] | 2.47 ± 0.31 | 2.69 ± 0.5 |  | 
SQHRRIHSGEKPFICKECGKAYGW [ZNF232] | 2.67 ± 0.27 | 2.97 ± 0.64 |  | 
LRAVEQAMGHSQDRLTTFQENQAR [LRRC45] | 4.48 ± 0.23 | 4.34 ± 0.22 |  | 
PNPPTLQEAGLSHTEVLFVQDLTD [FAF2] | 4.54 ± 0.27 | 4.64 ± 0.16 |  | 
EILPFLYLGSAYHASKCEFLANLH [DUSP5] | 2.94 ± 0.5 | 2.92 ± 0.75 |  | 
EDLEATSEHFKTTSQKVARKFWWK [VAMP8] | 4 ± 0.18 | 3.82 ± 0.25 |  | 
VSFEDPEFKSSFSQSFSLYVKYQV [ATE1] | 2.99 ± 0.81 | 2.51 ± 0.61 |  | 
QLGQRIYQYIQSRFYRSPEVLLGT [DYRK1B] | 2.23 ± 0.16 | 2.53 ± 0.44 |  | 
